Laboratory results as given in article PMC1343571.

Columns and labels:
[1] = target: Human surfactant protein-A (SP-A) (human) (UniProt Q8IWL2)
[2] = target: Human surfactant protein-A (SP-A) (human) (UniProt Q8IWL2); assay: SEC; gel filtration HPLC, two Biosep-SEC-S 4000 columns in series; SP-A (1.62 mg/ml) and α1-AT (1 mg/ml), 1:50 molar ratio, incubated 24 hrs at 37°C in phosphate buffer; eluted with 100 mM Na2HPO4, 2 mM CaCl2, pH 6.8

turnover number per inactivation of HNE, unmodified SP-A with α1-AT [1]: 24
stoichiometry N (molecules of α1-AT per molecule of SP-A) [2]: 18
Substance: Wild-type α1-antitrypsin (M α1-AT) (from UniProt P01009 25-418) (natural protein)
